Earlier results as cited in article PMC4540119.
pKd: −log10 of the molar value. Where two headings read alike, the source gives them in different places.

How the values were obtained:
[1] = biological target: integrin α6β1 (Homo sapiens) (UniProt P23229)
[2] = biological target: integrin α6β1 (Homo sapiens) (UniProt P23229); remark: listed apart in the source

Sequence of UniProt P23229 (P23229 24-1050, chain 1 of 2): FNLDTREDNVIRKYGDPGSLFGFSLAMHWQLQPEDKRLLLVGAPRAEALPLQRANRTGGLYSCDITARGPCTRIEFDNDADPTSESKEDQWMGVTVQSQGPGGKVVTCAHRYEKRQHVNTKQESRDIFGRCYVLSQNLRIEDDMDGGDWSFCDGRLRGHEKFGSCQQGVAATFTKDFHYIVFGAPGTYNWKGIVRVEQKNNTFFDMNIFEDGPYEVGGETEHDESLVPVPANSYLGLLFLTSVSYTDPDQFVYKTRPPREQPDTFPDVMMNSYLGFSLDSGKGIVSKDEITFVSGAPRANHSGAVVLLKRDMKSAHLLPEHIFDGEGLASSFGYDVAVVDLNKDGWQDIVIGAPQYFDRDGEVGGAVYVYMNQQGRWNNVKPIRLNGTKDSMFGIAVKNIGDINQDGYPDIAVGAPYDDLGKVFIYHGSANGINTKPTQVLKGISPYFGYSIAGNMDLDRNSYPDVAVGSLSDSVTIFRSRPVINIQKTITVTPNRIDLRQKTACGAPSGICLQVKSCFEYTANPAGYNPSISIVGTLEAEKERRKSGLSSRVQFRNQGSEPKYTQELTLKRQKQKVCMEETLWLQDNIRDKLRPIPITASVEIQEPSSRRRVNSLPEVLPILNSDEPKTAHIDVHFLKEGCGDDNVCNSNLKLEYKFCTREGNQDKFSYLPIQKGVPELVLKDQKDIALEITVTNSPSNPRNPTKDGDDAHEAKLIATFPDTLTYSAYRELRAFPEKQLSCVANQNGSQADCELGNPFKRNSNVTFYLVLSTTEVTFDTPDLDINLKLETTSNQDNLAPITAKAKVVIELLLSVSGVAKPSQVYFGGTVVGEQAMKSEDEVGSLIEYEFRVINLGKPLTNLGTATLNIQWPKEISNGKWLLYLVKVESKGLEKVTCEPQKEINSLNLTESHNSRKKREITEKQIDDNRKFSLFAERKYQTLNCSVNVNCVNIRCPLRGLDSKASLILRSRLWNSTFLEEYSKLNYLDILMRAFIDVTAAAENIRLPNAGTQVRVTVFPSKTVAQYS
Sequence of UniProt P23229 (P05556 21-728, chain 2 of 2, further chain): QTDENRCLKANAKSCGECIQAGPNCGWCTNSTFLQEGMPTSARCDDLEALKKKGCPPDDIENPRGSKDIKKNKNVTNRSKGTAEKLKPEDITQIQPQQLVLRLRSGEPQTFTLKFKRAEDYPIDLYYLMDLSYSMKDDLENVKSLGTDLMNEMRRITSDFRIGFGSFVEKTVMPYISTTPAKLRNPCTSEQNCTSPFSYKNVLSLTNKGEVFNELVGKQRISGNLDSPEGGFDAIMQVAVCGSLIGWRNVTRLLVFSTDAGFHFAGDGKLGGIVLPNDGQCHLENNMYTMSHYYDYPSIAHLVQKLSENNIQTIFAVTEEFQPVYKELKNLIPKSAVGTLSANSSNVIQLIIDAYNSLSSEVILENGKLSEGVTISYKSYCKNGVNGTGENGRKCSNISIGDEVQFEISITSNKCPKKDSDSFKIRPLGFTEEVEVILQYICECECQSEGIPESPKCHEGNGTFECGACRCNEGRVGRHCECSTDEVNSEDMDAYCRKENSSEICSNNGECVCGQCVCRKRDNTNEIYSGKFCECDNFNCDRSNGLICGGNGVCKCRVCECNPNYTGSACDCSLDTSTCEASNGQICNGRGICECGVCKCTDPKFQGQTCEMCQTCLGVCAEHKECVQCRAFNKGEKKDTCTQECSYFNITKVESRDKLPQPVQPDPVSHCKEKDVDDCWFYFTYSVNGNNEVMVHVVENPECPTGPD

pKd [1] | pKd [2] | Substance
9.14 | – | laminin-521 (from UniProt O15230)
– | 8.02 | laminin-111 (from UniProt P25391)
